Experimental data taken from paper PMC5937170.

Tests used:
Settings in all cases: EMSA: 15 ul, 70 C for 15 min, buffer per Ochs et al. 2012 (not given), 8% native PAGE; footprint: same binding conditions, DNase I at 37 C
[1] = biological target: T1, TFB-RF1;TBP;TFB (Pyrococcus furiosus;Pyrococcus furiosus?;Pyrococcus furiosus?) (UniProt Q8U1W6+P62000+P61998); experiment: EMSA
T1 sequence 1: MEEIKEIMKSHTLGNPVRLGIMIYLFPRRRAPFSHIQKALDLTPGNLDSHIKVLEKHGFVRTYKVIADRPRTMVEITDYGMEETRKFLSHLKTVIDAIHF
T1 sequence 2: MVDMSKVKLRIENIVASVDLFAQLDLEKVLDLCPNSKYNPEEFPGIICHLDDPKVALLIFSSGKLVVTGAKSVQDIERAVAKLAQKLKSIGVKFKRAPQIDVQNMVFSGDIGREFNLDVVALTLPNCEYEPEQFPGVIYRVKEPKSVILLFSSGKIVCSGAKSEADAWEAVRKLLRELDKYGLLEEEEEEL
T1 sequence 3: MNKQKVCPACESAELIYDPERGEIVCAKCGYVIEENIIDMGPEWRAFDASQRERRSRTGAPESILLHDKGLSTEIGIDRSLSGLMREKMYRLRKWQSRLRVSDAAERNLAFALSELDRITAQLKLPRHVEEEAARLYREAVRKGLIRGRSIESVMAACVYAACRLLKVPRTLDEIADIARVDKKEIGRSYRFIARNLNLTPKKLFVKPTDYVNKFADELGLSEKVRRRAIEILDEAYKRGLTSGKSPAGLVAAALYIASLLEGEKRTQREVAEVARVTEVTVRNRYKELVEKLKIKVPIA

[2] = biological target: T2, TFB-RF1 (Pyrococcus furiosus) (UniProt Q8U1W6); experiment: EMSA
T2 sequence: T1 sequence 1

[3] = biological target: T2, TFB-RF1 (Pyrococcus furiosus); experiment: DNase I footprinting

Sequence: ACTATTTTGGAAATTAGTTAAAGCTTCTAAAAAAGCTTGTTGTTTTTCTGGGATTCAGACGGATTATTTACAAAAAAGGAAAGGAATATTGGTAGCTATA (double strand) [pf1011/1012 promoter region (EMSA)]
- binding [1]: binds
- binding [2]: binds

Sequence: ACTATTTTGGAAATTAGTTAAAGCTTCTAAAAAAGCTTGTTGTTTTTCTGGGATTCAGACGGATTATTTACAAAAAAGGAAAGGAATATTGGTAGCTATA (double strand) [pf1011/1012 promoter region (footprint)]
- binding [3]: binds
